{
  "source": "patent US20230365662A1",
  "binders": {"B1": {"name": "KB001 mouse Fab VL S95Q (Fab, V domains shown)", "VH": "EVQLKQSGPGLVAPSQSLSITCTVSGFSLSIYSVHWVRQPPGKGLEWLGMIWGGGSSDYNSALKSRLSISKDNSKSQVFLKMNSLQTDDTAMYYCARNGNFYAMDYWGQGTSVTVSS", "VL": "QIVLTQSPAIMSASLGERVTMTCTASSSVSSSFLHWYQQKPGSSPQLWIYSTSNLASGVPARFSGSGSGTSYSLTISSMEAEDAATYYCHQYHHQPYIYTFGGGTKLEIK"}, "B2": {"name": "KB001 mouse Fab VL T100E (Fab, V domains shown)", "VH": "B1 VH", "VL": "B1 VL with Q95S, T100E"}, "B3": {"name": "KB001 mouse Fab VL A25E (Fab, V domains shown)", "VH": "B1 VH", "VL": "B1 VL with A25E, Q95S"}, "B4": {"name": "KB001 mouse Fab VL S26T (Fab, V domains shown)", "VH": "B1 VH", "VL": "B1 VL with S26T, Q95S"}, "B5": {"name": "KB001 mouse Fab VL T24K/R18S (Fab, V domains shown)", "VH": "B1 VH", "VL": "B1 VL with R18S, T24K, Q95S"}, "B6": {"name": "KB001 mouse Fab VL T24N/G67D (Fab, V domains shown)", "VH": "B1 VH", "VL": "B1 VL with T24N, G67D, Q95S"}, "B7": {"name": "KB001 mouse Fab VL S27H (Fab, V domains shown)", "VH": "B1 VH", "VL": "B1 VL with S27H, Q95S"}, "B8": {"name": "KB001 mouse Fab VL T24A (Fab, V domains shown)", "VH": "B1 VH", "VL": "B1 VL with T24A, Q95S"}, "B9": {"name": "KB001 mouse Fab VL S28H (Fab, V domains shown)", "VH": "B1 VH", "VL": "B1 VL with S28H, Q95S"}, "B10": {"name": "KB001 mouse Fab VL T24I (Fab, V domains shown)", "VH": "B1 VH", "VL": "B1 VL with T24I, Q95S"}, "B11": {"name": "KB001 mouse Fab VL T100W (Fab, V domains shown)", "VH": "B1 VH", "VL": "B1 VL with Q95S, T100W"}, "B12": {"name": "KB001 mouse Fab VL A25Y (Fab, V domains shown)", "VH": "B1 VH", "VL": "B1 VL with A25Y, Q95S"}, "B13": {"name": "KB001 mouse Fab VL T100Q (Fab, V domains shown)", "VH": "B1 VH", "VL": "B1 VL with Q95S, T100Q"}, "B14": {"name": "KB001 mouse Fab VL S27N (Fab, V domains shown)", "VH": "B1 VH", "VL": "B1 VL with S27N, Q95S"}, "B15": {"name": "KB001 mouse Fab VL T100Y (Fab, V domains shown)", "VH": "B1 VH", "VL": "B1 VL with Q95S, T100Y"}, "B16": {"name": "KB001 mouse Fab VL S27W (Fab, V domains shown)", "VH": "B1 VH", "VL": "B1 VL with S27W, Q95S"}, "B17": {"name": "KB001 mouse Fab VL S28T/S12R (Fab, V domains shown)", "VH": "B1 VH", "VL": "B1 VL with S12R, S28T, Q95S"}, "B18": {"name": "KB001 mouse Fab VL S28N (Fab, V domains shown)", "VH": "B1 VH", "VL": "B1 VL with S28N, Q95S"}, "B19": {"name": "KB001 mouse Fab VL T100S (Fab, V domains shown)", "VH": "B1 VH", "VL": "B1 VL with Q95S, T100S"}, "B20": {"name": "KB001 mouse Fab VL T24N (Fab, V domains shown)", "VH": "B1 VH", "VL": "B1 VL with T24N, Q95S"}, "B21": {"name": "KB001 mouse Fab VL S27L (Fab, V domains shown)", "VH": "B1 VH", "VL": "B1 VL with S27L, Q95S"}, "B22": {"name": "KB001 mouse Fab VL A25G (Fab, V domains shown)", "VH": "B1 VH", "VL": "B1 VL with A25G, Q95S"}, "B23": {"name": "KB001 mouse Fab VL A25P (Fab, V domains shown)", "VH": "B1 VH", "VL": "B1 VL with A25P, Q95S"}, "B24": {"name": "KB001 mouse Fab VL T24L (Fab, V domains shown)", "VH": "B1 VH", "VL": "B1 VL with T24L, Q95S"}, "B25": {"name": "KB001 mouse Fab VL T100M (Fab, V domains shown)", "VH": "B1 VH", "VL": "B1 VL with Q95S, T100M"}, "B26": {"name": "KB001 mouse Fab VL Y97E (Fab, V domains shown)", "VH": "B1 VH", "VL": "B1 VL with Q95S, Y97E"}, "B27": {"name": "KB001 mouse Fab VL T100G (Fab, V domains shown)", "VH": "B1 VH", "VL": "B1 VL with Q95S, T100G"}, "B28": {"name": "KB001 mouse Fab VL A25V (Fab, V domains shown)", "VH": "B1 VH", "VL": "B1 VL with A25V, Q95S"}, "B29": {"name": "KB001 mouse Fab VL S26P (Fab, V domains shown)", "VH": "B1 VH", "VL": "B1 VL with S26P, Q95S"}, "B30": {"name": "KB001 mouse Fab VL S27Y (Fab, V domains shown)", "VH": "B1 VH", "VL": "B1 VL with S27Y, Q95S"}, "B31": {"name": "KB001 mouse Fab VL T100R (Fab, V domains shown)", "VH": "B1 VH", "VL": "B1 VL with Q95S, T100R"}, "B32": {"name": "KB001 mouse Fab VL S28M (Fab, V domains shown)", "VH": "B1 VH", "VL": "B1 VL with S28M, Q95S"}, "B33": {"name": "KB001 mouse Fab VL S26G (Fab, V domains shown)", "VH": "B1 VH", "VL": "B1 VL with S26G, Q95S"}, "B34": {"name": "KB001 mouse Fab VL T24Q (Fab, V domains shown)", "VH": "B1 VH", "VL": "B1 VL with T24Q, Q95S"}, "B35": {"name": "KB001 mouse Fab VL T24G (Fab, V domains shown)", "VH": "B1 VH", "VL": "B1 VL with T24G, Q95S"}, "B36": {"name": "KB001 mouse Fab VL S27V (Fab, V domains shown)", "VH": "B1 VH", "VL": "B1 VL with S27V, Q95S"}, "B37": {"name": "KB001 mouse Fab VL T100H (Fab, V domains shown)", "VH": "B1 VH", "VL": "B1 VL with Q95S, T100H"}, "B38": {"name": "KB001 mouse Fab VL S27K/S68Y (Fab, V domains shown)", "VH": "B1 VH", "VL": "B1 VL with S27K, S68Y, Q95S"}, "B39": {"name": "KB001 mouse Fab VL S27M (Fab, V domains shown)", "VH": "B1 VH", "VL": "B1 VL with S27M, Q95S"}, "B40": {"name": "KB001 mouse Fab VL T100F (Fab, V domains shown)", "VH": "B1 VH", "VL": "B1 VL with Q95S, T100F"}, "B41": {"name": "KB001 mouse Fab VL T100L (Fab, V domains shown)", "VH": "B1 VH", "VL": "B1 VL with Q95S, T100L"}},
  "note": "Substitutions are numbered along the chain they refer to. Names may count otherwise. “And” between values parts separate entries of the source, which are not always exact repeats. Identical values can stand only once.",
  "data": [
    {"biological_target": "HRgpA-6H (Porphyromonas gingivalis) (UniProt P28784)", "sequence (P28784 228-991)": "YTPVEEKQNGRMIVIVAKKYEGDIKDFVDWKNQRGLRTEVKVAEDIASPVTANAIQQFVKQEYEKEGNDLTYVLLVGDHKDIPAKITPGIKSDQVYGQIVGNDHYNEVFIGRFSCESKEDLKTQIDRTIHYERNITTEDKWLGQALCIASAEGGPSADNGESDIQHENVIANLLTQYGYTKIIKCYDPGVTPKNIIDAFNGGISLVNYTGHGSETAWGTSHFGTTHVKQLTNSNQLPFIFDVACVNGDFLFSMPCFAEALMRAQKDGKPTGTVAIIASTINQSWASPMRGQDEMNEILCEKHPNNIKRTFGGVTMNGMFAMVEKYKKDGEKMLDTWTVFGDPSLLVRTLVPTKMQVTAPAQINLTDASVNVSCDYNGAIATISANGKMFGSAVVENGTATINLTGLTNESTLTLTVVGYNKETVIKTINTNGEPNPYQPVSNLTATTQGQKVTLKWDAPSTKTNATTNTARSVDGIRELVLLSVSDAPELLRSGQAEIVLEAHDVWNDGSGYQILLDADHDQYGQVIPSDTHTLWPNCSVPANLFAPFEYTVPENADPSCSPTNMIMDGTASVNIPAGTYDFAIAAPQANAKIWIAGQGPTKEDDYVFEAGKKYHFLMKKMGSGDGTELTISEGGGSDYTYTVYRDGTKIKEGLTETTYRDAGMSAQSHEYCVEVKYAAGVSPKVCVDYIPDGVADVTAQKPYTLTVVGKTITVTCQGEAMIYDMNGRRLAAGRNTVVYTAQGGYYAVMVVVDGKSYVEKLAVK", "assay": "ELISA, FASEBA Fab on coated HRgpA-6H", "values": [
      {"binder": "B1", "OD450nm": "0.931 and 0.936 and 0.927", "Ratio OD(Variant)/OD(WT)": "1.01 (2×) and 1.02"},
      {"binder": "B2", "OD450nm": "0.613 and 0.621 and 0.674", "Ratio OD(Variant)/OD(WT)": "1.17 and 1.19 and 1.29"},
      {"binder": "B3", "OD450nm": 0.655, "Ratio OD(Variant)/OD(WT)": 0.837},
      {"binder": "B4", "OD450nm": 0.761, "Ratio OD(Variant)/OD(WT)": 0.972},
      {"binder": "B5", "OD450nm": 0.761, "Ratio OD(Variant)/OD(WT)": 0.99},
      {"binder": "B6", "OD450nm": 0.755, "Ratio OD(Variant)/OD(WT)": 0.982},
      {"binder": "B7", "OD450nm": "0.664 and 0.63 and 0.726", "Ratio OD(Variant)/OD(WT)": "0.885 and 0.839 and 0.967"},
      {"binder": "B8", "OD450nm": 0.757, "Ratio OD(Variant)/OD(WT)": 0.984},
      {"binder": "B9", "OD450nm": 0.719, "Ratio OD(Variant)/OD(WT)": 0.958},
      {"binder": "B10", "OD450nm": 0.741, "Ratio OD(Variant)/OD(WT)": 0.964},
      {"binder": "B11", "OD450nm": 0.585, "Ratio OD(Variant)/OD(WT)": 1.12},
      {"binder": "B12", "OD450nm": "0.755 and 0.757", "Ratio OD(Variant)/OD(WT)": "0.964 and 0.967"},
      {"binder": "B13", "OD450nm": "0.586 and 0.596 and 0.604", "Ratio OD(Variant)/OD(WT)": "1.12 and 1.14 and 1.15"},
      {"binder": "B14", "OD450nm": "0.675 and 0.724 and 0.64", "Ratio OD(Variant)/OD(WT)": "0.899 and 0.965 and 0.853"},
      {"binder": "B15", "OD450nm": 0.546, "Ratio OD(Variant)/OD(WT)": 1.04},
      {"binder": "B16", "OD450nm": 0.601, "Ratio OD(Variant)/OD(WT)": 0.801},
      {"binder": "B17", "OD450nm": 0.747, "Ratio OD(Variant)/OD(WT)": 0.995},
      {"binder": "B18", "OD450nm": 0.743, "Ratio OD(Variant)/OD(WT)": 0.99},
      {"binder": "B19", "OD450nm": "0.602 and 0.664 and 0.625", "Ratio OD(Variant)/OD(WT)": "1.15 and 1.27 and 1.19"},
      {"binder": "B20", "OD450nm": "0.715 and 0.8", "Ratio OD(Variant)/OD(WT)": "0.93 and 1.04"},
      {"binder": "B21", "OD450nm": 0.649, "Ratio OD(Variant)/OD(WT)": 0.865},
      {"binder": "B22", "OD450nm": "0.668 and 0.699 and 0.673", "Ratio OD(Variant)/OD(WT)": "0.853 and 0.893 and 0.86"},
      {"binder": "B23", "OD450nm": "0.742 and 0.766 and 0.749", "Ratio OD(Variant)/OD(WT)": "0.948 and 0.978 and 0.957"},
      {"binder": "B24", "OD450nm": "0.753 and 0.752 and 0.667", "Ratio OD(Variant)/OD(WT)": "0.979 and 0.978 and 0.867"},
      {"binder": "B25", "OD450nm": 0.589, "Ratio OD(Variant)/OD(WT)": 1.12},
      {"binder": "B26", "OD450nm": 0.793, "Ratio OD(Variant)/OD(WT)": 1},
      {"binder": "B27", "OD450nm": "0.603 and 0.597", "Ratio OD(Variant)/OD(WT)": "1.15 and 1.14"},
      {"binder": "B28", "OD450nm": 0.768, "Ratio OD(Variant)/OD(WT)": 0.981},
      {"binder": "B29", "OD450nm": "0.644 and 0.677", "Ratio OD(Variant)/OD(WT)": "0.822 and 0.865"},
      {"binder": "B30", "OD450nm": 0.617, "Ratio OD(Variant)/OD(WT)": 0.822},
      {"binder": "B31", "OD450nm": 0.616, "Ratio OD(Variant)/OD(WT)": 1.18},
      {"binder": "B32", "OD450nm": "0.706 and 0.675", "Ratio OD(Variant)/OD(WT)": "0.941 and 0.899"},
      {"binder": "B33", "OD450nm": 0.73, "Ratio OD(Variant)/OD(WT)": 0.932},
      {"binder": "B34", "OD450nm": 0.765, "Ratio OD(Variant)/OD(WT)": 0.995},
      {"binder": "B35", "OD450nm": "0.686 and 0.735", "Ratio OD(Variant)/OD(WT)": "0.892 and 0.956"},
      {"binder": "B36", "OD450nm": "0.645 and 0.646", "Ratio OD(Variant)/OD(WT)": "0.859 and 0.861"},
      {"binder": "B37", "OD450nm": "0.597 and 0.631", "Ratio OD(Variant)/OD(WT)": "1.14 and 1.21"},
      {"binder": "B38", "OD450nm": 0.736, "Ratio OD(Variant)/OD(WT)": 0.981},
      {"binder": "B39", "OD450nm": 0.709, "Ratio OD(Variant)/OD(WT)": 0.945},
      {"binder": "B40", "OD450nm": 0.552, "Ratio OD(Variant)/OD(WT)": 1.05},
      {"binder": "B41", "OD450nm": "0.587 and 0.566", "Ratio OD(Variant)/OD(WT)": "1.12 and 1.08"}
    ]}
  ]
}
